Measurements published in patent US20140227291A1.

Tests used:
[1] = target: Abeta(1-42) globulomer (human) (UniProt P05067); assay: dot blot, antigen dilution series on nitrocellulose, antibody 0.2 µg/ml, densitometry
[2] = target: Abeta(1-42) monomer in 0.1% NH4OH (human); assay: as above
[3] = target: Abeta(1-40) monomer in 0.1% NaOH (human); assay: as above
[4] = target: Abeta(1-40) monomer in 0.1% NH4OH (human); assay: as above
[5] = target: Abeta(1-42) monomer in 0.1% NaOH (human); assay: as above
[6] = target: Abeta(1-42) fibril preparation (human) (UniProt P05067); assay: as above
[7] = target: human platelet factor 4 (PF-4) in HPF4-spiked human plasma (human) (UniProt P02776); assay: aligned sandwich-ELISA with HPF4-spiked human plasma; reference antibody
[8] = target: platelet factor 4 (PF-4) in Cynomolgus monkey plasma (Cynomolgus (Macaca fascicularis)); assay: sandwich-ELISA with cynomolgus plasma; reference antibody
[9] = target: human platelet factor 4 (PF-4) in HPF4-spiked human plasma (human) (UniProt P02776); assay: sandwich-ELISA with HPF4-spiked human plasma; reference antibody
[10] = target: human platelet factor 4 (PF-4) in HPF4-spiked human plasma (human) (UniProt P02776); assay: aligned sandwich-ELISA: antibody dilution series captured by coated anti-mouse IgG (Fc), HPF4-spiked human plasma 1:10, bound PF-4 detected with rabbit anti-HPF4 and anti-rabbit-POD
[11] = target: platelet factor 4 (PF-4) in Cynomolgus monkey plasma (Cynomolgus (Macaca fascicularis)); assay: aligned sandwich-ELISA with cynomolgus plasma; reference antibody
[12] = target: platelet factor 4 (PF-4) in Cynomolgus monkey plasma (Cynomolgus (Macaca fascicularis)); assay: aligned sandwich-ELISA: antibody dilution series captured by coated anti-mouse IgG (Fc), cynomolgus plasma 1:100, bound PF-4 detected with rabbit anti-HPF4 and anti-rabbit-POD
[13] = target: human platelet factor 4 (PF-4) in HPF4-spiked human plasma (human) (UniProt P02776); assay: aligned sandwich-ELISA, antibody 10 to 10000 ng/ml captured by anti-mouse IgG (Fc), HPF4-spiked human plasma 1:10, OD450 against log concentration
[14] = target: human platelet factor 4 (PF-4) in HPF4-spiked human plasma (human) (UniProt P02776); assay: sandwich-ELISA, antibody coated at 10 µg/ml, HPF4-spiked human plasma dilutions 1:3.16 to 1:3160, OD450 against log dilution
[15] = target: platelet factor 4 (PF-4) in Cynomolgus monkey plasma (Cynomolgus (Macaca fascicularis)); assay: aligned sandwich-ELISA, antibody 10 to 10000 ng/ml captured by anti-mouse IgG (Fc), cynomolgus plasma 1:100, OD450 against log concentration
[16] = target: platelet factor 4 (PF-4) in Cynomolgus monkey plasma (Cynomolgus (Macaca fascicularis)); assay: sandwich-ELISA, antibody coated at 10 µg/ml, cynomolgus plasma dilutions 1:3.16 to 1:3160, OD450 against log dilution

Sequence of human platelet factor 4 (PF-4) in HPF4-spiked human plasma (human) (P02776 32-101): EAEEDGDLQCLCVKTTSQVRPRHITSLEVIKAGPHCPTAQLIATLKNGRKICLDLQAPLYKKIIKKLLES
Sequence of platelet factor 4 (PF-4) in Cynomolgus monkey plasma (Cynomolgus (Macaca fascicularis)) (chain, as listed by the source): as the sequence (P02776 32-101) above, with I64V counted along it
Sequence of Abeta(1-40) monomer in 0.1% NH4OH (human) (peptide, as listed by the source): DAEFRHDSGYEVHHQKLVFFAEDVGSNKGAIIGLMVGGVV
Sequence of Abeta(1-42) monomer in 0.1% NH4OH (human) (peptide, as listed by the source): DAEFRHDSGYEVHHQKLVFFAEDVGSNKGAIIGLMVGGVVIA

| dot blot ratio (recognition of Abeta(20-42) globulomer relative to this Abeta form) [1] | dot blot ratio (recognition of Abeta(20-42) globulomer relative to this Abeta form) [2] | dot blot ratio (recognition of Abeta(20-42) globulomer relative to this Abeta form) [3] | dot blot ratio (recognition of Abeta(20-42) globulomer relative to this Abeta form) [4] | dot blot ratio (recognition of Abeta(20-42) globulomer relative to this Abeta form) [5] | dot blot ratio (recognition of Abeta(20-42) globulomer relative to this Abeta form) [6] | Ratio HPF4/aAbeta antibody (AUC of anti-HPF4 over AUC of this antibody) [7] | Ratio HPF4/aAbeta antibody (AUC of anti-HPF4 over AUC of this antibody) [8] | Ratio HPF4/aAbeta antibody (AUC of anti-HPF4 over AUC of this antibody) [9] | EC50 (read off the curve) [10] | Ratio HPF4/aAbeta antibody (AUC of anti-HPF4 over AUC of this antibody) [11] | EC50 (read off the curve) [12] | Area Under Curve [13] | Area Under Curve [14] | Area Under Curve [15] | Area Under Curve [16] | Substance |
| --- | --- | --- | --- | --- | --- | --- | --- | --- | --- | --- | --- | --- | --- | --- | --- | --- |
| 0.09 | 10 | 20 | 3 | 10 | 29 | – | – | – | – | – | – | – | – | – | – | Anti-Abeta monoclonal antibody clone 6E10 (Covance cat. no. SIG-39320) |
| – | – | – | – | – | – | 1 | 1 | 1 | 0.07 µg/mL | 1 | 0.05 µg/mL | 3.84 | 1.99 | 4.78 | 2.68 | Anti-HPF4 monoclonal antibody (Abcam Cat. No. ab49735) |
| – | – | – | – | – | – | – | – | – | – | – | – | 0.033 | 0.006 | 0.015 | 0.005 | Monoclonal antibody clone mIgG2a (negative control) |
